From patent US12286661B2, “Methods for making high intensity sweeteners” (Firmenich Incorporated, priority 2018, dated 2025)

Tested on: mogrol
Assay: Mogroside IA and/or IE production from mogrol by glycosyltransferases expressed in S. cerevisiae, LCMS
Assay type: cell-based
Conditions: 10 μM mogrol, 2-4 days at 30° C.; identified by LCMS
From the text: DNA was obtained through gene synthesis either through Genescript, IDT, or Genewiz. For some of the cucurbitadienol synthases, cDNA or genomic DNA was obtained through 10-60 day old seedlings followed by PCR amplification using specific and degenerate primers. DNA was cloned through standard molecular biology techniques or through yeast gap repair cloning (Joska et al., 2014) into one of the following overexpression vectors: pESC-Ura, pESC-His, or pESC-LEU. Gene expression was regulated by one of the following promoters; Gall, Gal10, Tef1, or GDS. Yeast transformation was performed using Zymo Yeast Transformation Kit II. Yeast strains were grown in standard media (YPD or SC) containing the appropriate selection with 2% glucose or 2% galactose for induction of heterologous genes. Yeast strains were grown in shake flask or 96 well plates at 30° ° C., 140-250 rpm. When indicated, lanosterol synthase inhibitor, Ro 48-8071 (Cayman Chemicals) was added (50 ug/ml). Yeast samples producing mogrol precursors, mogrol and mogrosides were processed through one of the following: • Cucurbitadienol and 11-OH Cucurbitadienol: Samples cell pellets were lysed (Yeast Buster) followed by ethyl acetate extraction, drying, and resuspension in methanol. • ·Mogrol and Mogrosides: Samples cell pellets were lysed in 50% ETOH, incubated at 80° C. for 30 min, filtered, dried and resuspended in MeOH for LCMS screening.
For analyzing Mogroside IIIE & Compound 1, the LCMS method included the use of Fluoro-phenyl 2.1×100 mm column, gradient 15 to 30% B for 6 minutes, at flow rate of 0.55 ml/min. For analyzing yeast production of mogroside I during enzyme screening, the LCMS method used a Phenomenex Kinetex Polar C18, 4.6×100 mm, 2.6 μm column, and a gradient of 25% to 55% B over 3 minutes, and 100% B at 3.5 minutes with a flow rate of 1.5 ml/min. Detection by ESI source negative mode single ion monitoring of 683.4 for mogroside I and 799.4 for mogroside II.
Various glycosyltransferase proteins were expressed in S. cerevisiae grown in the presence of 10 μM mogrol for 2-4 days at 30° C., 140-250 rpm in either shake flask or 96 well plates. Glycosyltransferases leading to production of Mogroside IA (glycosylation of C24-OH position) and/or Mogroside IE (glycosylation of C3-OH position) are provided in Table 6. DNA and protein sequences for the enzymes are provided in SEQ IDs 1050-1071 (see Table 1).

Molecule | Mogroside IA | Mogroside IE
SEQ ID NO. 1050/1051: glycosyltransferase (DNA/protein SEQ ID NO) producing mogroside I from mogrol (protein, listed as Bacillus licheniformis) MRHKHIAIFNIPAHGHINPTLALTASLVKRGYRVTYPVTDEFVKAVEETGAEPLNYRSTLNIDPQQIRELMKNKKDMSQAPLMFIKEMEEVLPQLEALYENDKPDLILFDFMAMAGKLLAEKFGIEAVRLCSTYAQNEHFTFRSISEEFKIELTPEQEDALKNSNLPSFNFEDMFEPAKLNIVFMPRAFQPYGETFDERFSFVGPSLAKRKFQEKETPIISDSGRPVMLISLGTAFNAWPEFYHMCIEAFRDTKWQVIMAVGTTIDPESFDDIPENFSIHQRVPQLEILKKAELFITHGGMNSTMEGLNAGVPLVAVPQMPEQEITARRVEELGLGKHLQPEDTTAASLREAVSQTDGDPHVLKRIQDMQKHIKQAGGAEKAADEIEAFLAPAGVK | 2700609 | not detected
SEQ ID NO. 1068/1069: glycosyltransferase (DNA/protein SEQ ID NO) producing mogroside I from mogrol (protein, listed as Barbarea vulgaris) MVSEITHKSYPLHFVLFPFMAQGHMIPMVDIARLLAQRGVKITIVTTPHNAARFKNVLSRAIESGLPISIVQVKLPSQEAGLPEGNETLDSLVSMELMIHFLKAVNMLEEPVQKLFEEMSPQPSCIISDFCLPYTSKIAKKFNIPKILFHGMCCFCLLCMHILRKNREIVENLKSDKEHFVVPYFPDRVEFTRPQVPVATYVPGDWHEITEDMVEADKTSYGVIVNTYQELEPAYANDYKEARSGKAWTIGPVSLCNKVGADKAERGNKADIDQDECLKWLNSKEEGSVLYVCLGSICNLPLSQLKELGLGLEESQRPFIWVIRGWEKNKELHEWFSESGFEERIKDRGLLIKGWAPQMLILSHHSVGGFLTHCGWNSTLEGLTAGLPLLTWPLFADQFCNEKLAVQVLKAGVSAGVDQPMKWGEEEKIGVLVDKEGVKKAVEELMGESDDAKEIRRRAKELGELAHKAVEEGGSSHSNITSLLEDIMQLAQSNN | 1315000 | not detected
SEQ ID NO. 1066/1067: glycosyltransferase (DNA/protein SEQ ID NO) producing mogroside I from mogrol (protein, listed as Barbarea vulgaris) MASITNHKSDPLHFVLFPFMAQGHMIPMVDIARLLAQRGLTITIVTTPHNASRFKNVLNRAIESGLPINILHVKLPYQEVGLPEGLENIDCFDSMEHMIPFFKGVNMVEESVQKLFEEMSPRPSCIISDFCLPYTSKVAKKFNIPKILFHGMCCLCLLCMHVLRKNPKILENLKSDKEHFVVPYFPDKIELTRPQVPMDTYVPGELKEFMEDLVEADKTSYGVIVNTFQELEPAYVKDYKETRSGKAWSVGPVALCNKARIDKAERGNKSDIDQDECLKWLDSKEERSVLYVCLGSICNLPLAQLKELGLGLEESTRPFIWVIRGWDKNKQLVEWFSESGFEERIKDRGLLIKGWSPQMLILSHQSVGGFLTHCGWNSTLEGITAGLPLLTWPLFADQFCNEKLVVQVLNSGVRAGVEQPMKWGEEEKIGVLVDKEGVKKAVEELMGESDEANERRRRAKELGELAHKAVEEGGSSHSNITFLLQDIMQLAQPITEPSFLVQSWHYKKALLINLLQRTGHYQSK | 562100 | not detected
SEQ ID NO. 1062/1063: glycosyltransferase (DNA/protein SEQ ID NO) producing mogroside I from mogrol (protein, listed as Barbarea vulgaris) MASITNHKSDPLHFVLFPFMAQGHMIPMVDIARLLAQRGLTITIVTTPHNASRFKNVLNRAIESGLPINILHVKLPYQEVGLPEGLENIDCFDSMEHMIPFFKGVNMVEESVQKLFEEMSPRPSCIISDFCLPYTSKVAKKFNIPKILFHGMCCLCLLCMHVLRKNPKILENLKSDKEHFVVPYFPDKIELTRPQVPMDTYVPGELKEFMEDLVEADKTSYGVIVNTFQELEPAYVKDYKETRSGKAWSVGPVALCNKARIDKAERGNKSDIDQDECLKWLDSKEERSVLYVCLGSICNLPLAQLKELGLGLEESTRPFIWVIRGWDKNKQLVEWFSESGFEERIKDRGLLIKGWSPQMLILSHQSVGGFLTHCGWNSTLEGITAGLPLLTWPLFADQFCNEKLVVQVLNSGVRAGVEQPMKWGEEEKIGVLVDKEGVKKAVEELMGESDEANERRRRAKELGELAHKAVEEGGSSHSNITFLLQDIMQLAQSNN | 1816000 | not detected
SEQ ID NO. 1064/1065: glycosyltransferase (DNA/protein SEQ ID NO) producing mogroside I from mogrol (protein, listed as Barbarea vulgaris) MASAKLHQFHPSLHFVLFPFMAQGHMIPMIDIARLLAQRGVTITIVTTLHNSARFRNVLSRAIESGLPINLVHVKFPYQEAGLPEGQENIDSLDSKELTVPFFKAVNMLEEPVMKLMEEMKPRPSCLISDLCLPYTSKIAKKFNIPKIVFHGMGCFCLLCMHVLRRNLEILQNLKSDKEYFWIPNFPDRVEFTKPQVPVRINASGDWKVFLDEMVKAEETSYGVIVNTFQELEPAYVKDFQEARAGKVWSIGPVSLCNKIEADKAERGNKAAIDQDECLKWLDSKEGGSVLYVCLGSICNLPLVQLIELGLGLEESQRPFIWVIRGWEKYNELSEWISESGFEERVKDRGLLIRGWAPQVLILSHPSVGGFLTHCGWNSTLEGITSGVPLLTLPLFGDQFCNQKLIVQVLKVGVSAGVEEVMGWGEEEKIGVLVDKERVKKTVEEVMGESDDAKERRRRVKELGKLAHKAVEEGGSSHSNITLFLQDMCQLQSVGIY | 76330 | 13290
SEQ ID NO. 1060/1061: glycosyltransferase (DNA/protein SEQ ID NO) producing mogroside I from mogrol (protein, listed as Barbarea vulgaris) MASESCHHSHCPLHFVLFPFMAQGHMIPMVDIARLLALRGATITIVTTPHNATRFNNLLSRAIESDLSINIVHVNFPYQEAGLSEGQENVDLLESMGLMVPFLKAVNMLEEPVMKLMEEMKPRPSCLISDFCLHYTSKITKKFNIPKIVFHGMGCFCLLCMHVLRRNIEILKNLKSDKEYFLVPSFPDIVEFTKPQVPVETNASGDWKEFLEAMVEAEDTSYGVIVNTFQELEPAYVKDYKEARAGKVWSIGPVSLCNKIEADKAERGNKAAIDQEECLKWLDSKEEGSVLYVCLGSICNLPLAQLKELGIGLEESQRPFIWVIRGWEKYNELSEWMLESGFEERVKDRGLLIKGWSPQMLVLSHPSVGGFLTHCGWNSTLEGITSGVPLLTWPLFADQFCNEKLVVQVLKVGVRAGVEDPMSWGEEEKVGVLLDKEGVKKAVEELMGESDDAKERRKRVKELGELAHKAVEEGGSSHSNITLFLQDISQYKSVGTF | 696200 | not detected
SEQ ID NO. 1070/1071: glycosyltransferase (DNA/protein SEQ ID NO) producing mogroside I from mogrol (protein, listed as Barbarea vulgaris) MVSEITHKSYPLHFVLFPFMAQGHMIPMVDIARLLAQRGVKITIVTTPHNAARFENVLNRAIESGLPISIVQVKLPSQEAGLPEGNETFDSLVSMELLVPFFKSVNMLEEPVQKLFEEMSPQPSCIISDFCLPYTSKIAKKFNIPKILFHGMCCFCLLCMHVLRKNHEIVENLKSDKEHFVVPYFPDRVEFTRPQVPVATYVPGDWHEITGDMVEADKTSYGVIVNTCQELEPAYANDYKEARSGKAWTIGPVSLCNKVGADKAERGNKADIDQDECLKWLNSKEEGSVLYVCLGSICNLPLSQLKELGLGLEESQRPFIWVIRGWEKNKELLEWFSESGFEERIKDRGLLIKGWAPQMLILSHHSVGGFLTHCGWNSTLEGLTAGLPLLTWPLFADQFCNEKLAVQVLKAGVSAGVDQPMKWGEEEKIGVLVDKEGVKKAVEELMGESDDAKEIRRRAKELGELAHKAVEEGGSSHSNITSLLEDIMQLAQSNN | 1764000 | not detected
SEQ ID NO. 1058/1059: glycosyltransferase (DNA/protein SEQ ID NO) producing mogroside I from mogrol (protein, listed as Barbarea vulgaris) MASETTHQFHSPLHFVLFPFMAQGHMIPMVDIARILAQRGVTITIVTTPHNAARFKNVLSRAIQSGLPINLVQAKFPSQESGSLEGHENLDLLDSLGASLTFFKATNMFEKPVEKLLKEIQPRPSCIIGDMCLPYTNRIAKNLGIPKIIFHGMCCFNLLCMHIMRQNYEFLETIDSEKEYFPIPNFPERAEFTKSQLPMITYAGEFKEFLDEVTEGDNTSYGVIVNTFEELEPAYVRDYKKVKAGKVWSIGPVSLCNKVGEDKAERGNKAAIDQDECIKWLDSKEEGSVLYVCLGSICNLPLSQLKELGLGLEESQRPFIWVIRGWEKYNELAEWISESGFKERIKERGLLIRGWSPQMLILSHPAVGGFLTHCGWNSTLEGITSGVPLLTWPLFGDQFCNEKLVVQVLKVGVRSGVEESMKWGQEENIGVLVDKEGVKKAVEEVMGESDDAKERRRRVKELGQLAHKAVEEGGSSHSNITSLLQDIRQLQSKK | 261900 | 104300
